Assay results: publication PMC7659714 (The Journal of Cell Biology, 2020)
Blank lines part the entries; values can stand above or below the binder they belong to.

How the values were obtained:
[1] = biological target: T1, GluA1 expressed in HEK cells (mTurquoise2-GluA1) (mouse, UniProt P23818 19-907); assay: FRET or BRET
[2] = biological target: T1, GluA1 expressed in HEK cells …; assay: co-IP

T1 sequence (P23818 19-907): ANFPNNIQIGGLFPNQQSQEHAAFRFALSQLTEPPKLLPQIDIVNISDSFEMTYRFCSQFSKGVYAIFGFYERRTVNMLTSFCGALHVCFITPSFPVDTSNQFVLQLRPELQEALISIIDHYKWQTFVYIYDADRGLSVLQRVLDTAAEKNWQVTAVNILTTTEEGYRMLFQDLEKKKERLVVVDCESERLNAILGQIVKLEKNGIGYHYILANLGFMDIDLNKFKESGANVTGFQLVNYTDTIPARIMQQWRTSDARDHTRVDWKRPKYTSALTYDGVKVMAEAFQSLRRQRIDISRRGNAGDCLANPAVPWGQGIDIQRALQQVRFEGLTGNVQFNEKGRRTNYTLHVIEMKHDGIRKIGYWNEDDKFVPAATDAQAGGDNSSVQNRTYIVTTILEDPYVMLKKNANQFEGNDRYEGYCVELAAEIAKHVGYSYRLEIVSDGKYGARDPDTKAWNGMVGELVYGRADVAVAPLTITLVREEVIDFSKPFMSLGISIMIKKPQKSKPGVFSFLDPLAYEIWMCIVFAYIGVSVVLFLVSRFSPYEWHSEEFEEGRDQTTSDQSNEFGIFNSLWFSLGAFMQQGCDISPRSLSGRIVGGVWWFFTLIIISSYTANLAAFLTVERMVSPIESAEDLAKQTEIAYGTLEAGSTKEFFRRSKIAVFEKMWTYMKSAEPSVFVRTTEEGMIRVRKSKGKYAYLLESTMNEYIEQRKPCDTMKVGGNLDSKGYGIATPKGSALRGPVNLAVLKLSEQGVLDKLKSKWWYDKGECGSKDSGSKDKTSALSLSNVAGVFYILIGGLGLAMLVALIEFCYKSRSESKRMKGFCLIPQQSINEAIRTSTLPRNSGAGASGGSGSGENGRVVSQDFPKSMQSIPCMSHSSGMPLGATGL

B2: CPT1CM589S (malonyl-CoA-insensitive CPT1C) expressed in HEK cells for co-immunoprecipitation (natural protein, UniProt Q8BGD5 1-798, looked up)
chain: MAEAHQASSLLSSLSSDGAEVELSSPVWQEIYLCALRSWKRHLWRVWNDFLAGVVPATPLSWLFLFSTIQLACLLQLDPSLGLMEKIKELLPDWGGQHHQLQGFLSAAVFASCLWGALIFTLHVALRLLLSHHGWLLEPHGAMSSPTKTWLALVRIFSGRHPRLFSFQRALPRQPVPSAQETVRKYLESVRPVLGDDAFDRATALANDFLRLHAPRLQLYLQLKSWCTSNYVSDWWEEFVYLRSRGSLINSTYYMMDFLYVTPTPLQAARAGNAVHTLLLYRHLLNRQEISPTLLMGMRPLCSAQYERMFNTTRIPGVEKDHLRHLQDSRHVAVFHRGRFFRVGTHSPNGLLSPRALEQQFQDILDDPSPACPLEEHLAALTAAPRSMWAQVRESVKTHAATALEAVEGAAFFVSLDSEPAGLTREDPAASLDAYAHALLAGRGHDRWFDKSFTLIVFSNGKLGLSVEHSWADCPVSGHLWEFTLATECFQLGYATDGHCKGHPDPTLPQPQRLQWDLPEQIQPSISLALRGAKTLSGNIDCHVFPFSHFGKSFIKCCHVSSDSFIQLVLQLAHFRDRGQFCLTYESASTRLFLEGRTETVRSCTREACQFVRAMDNKETDQHCLALFRVAVDKHQALLKAAMSGQGIDRHLFALYIMSRLLHMQSPFLTQVQSQQWLLSTSQVPVQQTHLIDVHNYPDYVSSGGGFGPAHDHGYGISYIFMGENAITFHISSKKSSTETDSHRLGQHIENALLDVASLFRVGQHFKRQFRGENSDYRYNFLSCKTVDPNTPTSSTNL
- coimmunoprecipitated CPT1C versus immunoprecipitated GluA1, relative to WT CPT1C [2]: 0.85 ratio to GluA1 + WT CPT1C (1.00)

B4: CPT1CΔCterm-FLAG (truncated CPT1C, last 39 aa replaced by FLAG) expressed in HEK cells for co-immunoprecipitation (domain or fragment, UniProt Q8BGD5 1-759, looked up)
chain: MAEAHQASSLLSSLSSDGAEVELSSPVWQEIYLCALRSWKRHLWRVWNDFLAGVVPATPLSWLFLFSTIQLACLLQLDPSLGLMEKIKELLPDWGGQHHQLQGFLSAAVFASCLWGALIFTLHVALRLLLSHHGWLLEPHGAMSSPTKTWLALVRIFSGRHPRLFSFQRALPRQPVPSAQETVRKYLESVRPVLGDDAFDRATALANDFLRLHAPRLQLYLQLKSWCTSNYVSDWWEEFVYLRSRGSLINSTYYMMDFLYVTPTPLQAARAGNAVHTLLLYRHLLNRQEISPTLLMGMRPLCSAQYERMFNTTRIPGVEKDHLRHLQDSRHVAVFHRGRFFRVGTHSPNGLLSPRALEQQFQDILDDPSPACPLEEHLAALTAAPRSMWAQVRESVKTHAATALEAVEGAAFFVSLDSEPAGLTREDPAASLDAYAHALLAGRGHDRWFDKSFTLIVFSNGKLGLSVEHSWADCPVSGHLWEFTLATECFQLGYATDGHCKGHPDPTLPQPQRLQWDLPEQIQPSISLALRGAKTLSGNIDCHVFPFSHFGKSFIKCCHVSSDSFIQLVLQLAHFRDRGQFCLTYESAMTRLFLEGRTETVRSCTREACQFVRAMDNKETDQHCLALFRVAVDKHQALLKAAMSGQGIDRHLFALYIMSRLLHMQSPFLTQVQSQQWLLSTSQVPVQQTHLIDVHNYPDYVSSGGGFGPAHDHGYGISYIFMGENAITFHISSKKSSTETDSHRLGQHIENALLDVASL
- coimmunoprecipitated CPT1C versus immunoprecipitated GluA1, relative to WT CPT1C [2]: 0.12 ratio to GluA1 + WT CPT1C (1.00)

Next, values leading:

- percentage of FRET efficiency [1]: 8.7%
B1: YFP-CPT1C, wild type, for FRET (CPT1C-SYFP2) (natural protein, human, UniProt Q8TCG5 1-803, looked up)
chain: MAEAHQAVGFRPSLTSDGAEVELSAPVLQEIYLSGLRSWKRHLSRFWNDFLTGVFPASPLSWLFLFSAIQLAWFLQLDPSLGLMEKIKELLPDWGGQHHGLRGVLAAALFASCLWGALIFTLHVALRLLLSYHGWLLEPHGAMSSPTKTWLALVRIFSGRHPMLFSYQRSLPRQPVPSVQDTVRKYLESVRPILSDEDFDWTAVLAQEFLRLQASLLQWYLRLKSWWASNYVSDWWEEFVYLRSRNPLMVNSNYYMMDFLYVTPTPLQAARAGNAVHALLLYRHRLNRQEIPPTLLMGMRPLCSAQYEKIFNTTRIPGVQKDYIRHLHDSQHVAVFHRGRFFRMGTHSRNSLLSPRALEQQFQRILDDPSPACPHEEHLAALTAAPRGTWAQVRTSLKTQAAEALEAVEGAAFFVSLDAEPAGLTREDPAASLDAYAHALLAGRGHDRWFDKSFTLIVFSNGKLGLSVEHSWADCPISGHMWEFTLATECFQLGYSTDGHCKGHPDPTLPQPQRLQWDLPDQIHSSISLALRGAKILSENVDCHVVPFSLFGKSFIRRCHLSSDSFIQIALQLAHFRDRGQFCLTYESAMTRLFLEGRTETVRSCTREACNFVRAMEDKEKTDPQCLALFRVAVDKHQALLKAAMSGQGVDRHLFALYIVSRFLHLQSPFLTQVHSEQWQLSTSQIPVQQMHLFDVHNYPDYVSSGGGFGPADDHGYGVSYIFMGDGMITFHISSKKSSTKTDSHRLGQHIEDALLDVASLFQAGQHFKRRFRGSGKENSRHRCGFLSRQTGASKASMTSTDF

- percentage of FRET efficiency [1]: 9.51%
B3: YFP-CPT1CM589S for FRET (natural protein, UniProt Q8BGD5 1-798, looked up)
chain: B2 chain
